This data set concerns the molecule itself. The data set is described as follows: Western blot of soluble nuclear extracts, seminative electrophoresis (self-association, homotrimer). In general terms: In western blotting, separated proteins are transferred to a membrane and probed.

B1: recombinant adenovirus type 5 (Ad5) fiber protein expressed from pCLF in cell lines 211A, 211B and 211R (other)
chain: MKRARPSEDTFNPVYPYDTETGPPTVPFLTPPFVSPNGFQESPPGVLSLRLSEPLVTSNGMLALKMGNGLSLDEAGNLTSQNVTTVSPPLKKTKSNINLEISAPLTVTSEALTVAAAAPLMVAGNTLTMQSQAPLTVHDSKLSIATQGPLTVSEGKLALQTSGPLTTTDSSTLTITASPPLTTATGSLGIDLKEPIYTQNGKLGLKYGAPLHVTDDLNTLTVATGPGVTINNTSLQTKVTGALGFDSQGNMQLNVAGGLRIDSQNRRLILDVSYPFDAQNQLNLRLGQGPLFINSAHNLDINYNKGLYLFTASNNSKKLEVNLSTAKGLMFDATAIAINAGDGLEFGSPNAPNTNPLKTKIGHGLEFDSNKAMVPKLGTGLSFDSTGAITVGNKNNDKLTLWTTPAPSPNCRLNAEKDAKLTLVLTKCGSQILATVSVLAVKGSLAPISGTVQSAHLIIRFDENGVLLNNSFLDPEYWNFRNGDLTEGTAYTNAVGFMPNLSAYPKSHGKTAKSNIVSQVYLNGDKTKPVTLTITLNGTQETGDTTPSAYSMSFSWDWSGHNYINEIFATSSYTFSYIAQE
notes: Monomer 62 kD, homotrimer 186 kD; Expressed in 293-derived lines 211A, 211B and 211R; also called recombinant fiber; type 5 fiber protein
As to B1, the binding result was “binds”.
